{
  "source": "patent US20060084593A1",
  "target": "gp120/CD4 complex (human immunodeficiency virus (HIV), hxbc2) (UniProt P04578)",
  "assay": "SPR (Biacore); 48d immobilized; gp120 50 nM, CD4 250 nM, heparin dp16 at 125 nM (0.6 µg/ml) as inhibitor",
  "data": [
    {"substance": "antibody 48d specific for the CD4i epitope", "values": [
      {"measurement": "% inhibition of the interaction by heparin dp16 (125 nM)", "result": "90 to 100", "unit": "%"}
    ]}
  ]
}
